Assay results reported in patent US20250034224A1.
Blank lines part the entries; values can stand above or below the substance they belong to.

Legend:
Test in all cases: cell-based or functional assay
[1] = biological target: IL2 receptors (on lymphocyte populations of human PBMCs)
[2] = biological target: Chimeric antigen receptor containing a VL-VH scFv (VL and VH of antibody 17363N) recognizing T3 (HLA)
[3] = biological target: OT-I TCR (Ovalbumin(257-264)-specific) on CD8+ T cells of an OT-I TCR transgenic mouse (mouse); conditions: scale: orders of magnitude higher potency than T5-IL2M6

potency in STAT5 phosphorylation on multiple lymphocyte populations, against IL2M0 (fold less potent than IL2M0) [1]: 100
Substance: IL2M2: Human IL2-(GGGGS)4-human IL-2Ra-GGGGS-Fc (Fc fusion)

potency in STAT5 phosphorylation on multiple lymphocyte populations, against IL2M4 (fold less potent than IL2M4) [1]: > 100
Substance: IL2M5: Fc-GGGGS-human IL2 (N88D, C125A) fusion (Fc fusion)

Substance: T3-IL2M6: HPV16E7(11-19)-GCGGS-(GGGGS)2-hB2m-(GGGGS)4-hHLA.A2-(GGGGS)4-Fc-(GGGGS)3-hIL2(H16A, F42A) (peptide-MHC)
frequency of viable CAR-T (eGFPPos) cells at day 3 of expansion (start 38%) [2]: 36%

intracellular STAT5 phosphorylation in gated CD8+ T cells of OT-I splenocytes [3]: 2
Substance: T4-IL2M6: OVA(257-264)-GCGGS-(GGGGS)2-mB2m-(GGGGS)4-mH2Kb-(GGGGS)4-Fc-(GGGGS)3-hIL2(H16A, F42A) (peptide-MHC)
